According to publication doi:10.1101/2025.04.23.649697, “Biomass-derived Lignin Nanoparticles for the Sustained Delivery of Vascular Endothelial Growth Factor-C” (bioRxiv, 2025):

Biological target: the molecule itself
Experiment: SEC; HiLoad 26/600 Superdex 200 pg in PBS, after IMAC; peaks identified using BSA as a molecular weight marker

B1: mature Vascular Endothelial Growth Factor C (dNdC-hVEGF-C-H6) (ligand, human, UniProt P49767 112-227, looked up)
chain: AHYNTEILKSIDNEWRKTQCMPREVCIDVGKEFGVATNTFFKPPCVSVYRCGGCCNSEGLQCMNTSTSYLSKTLFEITVPLSQGPKPVTISFANHTSCRCMSKLDVYRQVHSIIRR
notes: VEGF-C, human, dNdC form (called mature VEGFC); secreted with the BiP signal peptide of the vector pMT-Ex; SEC gave dimeric and monomeric species; The dimeric peak was collected and used for nanoparticle loading and the bioassays; also called mature VEGFC; purified mature VEGFC; not shown: His6 (H6 in the construct's name)
stoichiometry N: 2
